From US20230077531A1 (Sanofi, published 2023) come the findings set out here.

What is called EC50 is the midpoint of the concentration-response curve. As usually defined, the Kd is the free concentration of one partner at which half of the binding sites on the other are occupied at equilibrium, for simple one-to-one binding.

The labels stand for the following.
T1: human FcγRIIa R131 (human, UniProt P12318 34-317, limits assumed)
T1 construct: FACS implies display on cells, but the methods name no FcγRIIa cell line; also called huFcγRIIa R131
T1 sequence (looked up): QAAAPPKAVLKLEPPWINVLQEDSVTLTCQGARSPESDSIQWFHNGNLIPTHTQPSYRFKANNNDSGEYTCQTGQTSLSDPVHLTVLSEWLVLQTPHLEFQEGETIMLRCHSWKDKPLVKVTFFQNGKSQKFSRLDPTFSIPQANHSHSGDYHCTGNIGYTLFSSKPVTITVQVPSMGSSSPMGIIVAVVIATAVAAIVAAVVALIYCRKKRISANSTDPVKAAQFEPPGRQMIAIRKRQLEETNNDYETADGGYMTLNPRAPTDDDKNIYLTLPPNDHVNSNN

T2: human FcγRIIa H131 (human, UniProt P12318 34-317, limits assumed)
T2 construct: FACS implies display on cells, but the methods name no FcγRIIa cell line; also called huFcγRIIa H131
T2 sequence (looked up): T1 sequence (looked up) with R134H

B1: mAb1 (wt) (IgG1) (antibody)
chain 1: not shown
chain 2: QAVVTQPPSVSGAPGQRVTISCTGSSSNIGADYNVHWYQLLPGTAPKLLIYGNTNRPSGVPDRFSGSKSGTSASLAITGLQAEDEADYYCQSYDSSLSASVFGGGTKLTVLGQPKAAPSVTLFPPSSEELQANKATLVCLISDFYPGAVTVAWKADSSPVKAGVETTTPSKQSNNKYAASSYLSLTPEQWKSHRSYSCQVTHEGSTVEKTVAPTECS
B2: mAb1-DE (antibody)
chain 1: not shown
chain 2: B1 chain 2
B3: mAb1-ADLE (antibody)
chain 1: QVQLVQSGAEVKKPGASVKVSCKASGYSFTSYGISWVRQAPGQGLEWMGWISTYKGYTQYAQNFQGRVTITTDTPATTVYMELRSLRSDDTAVYYCARVLSETGYFYYYYYGMDVWGQGTLVTVSSASTKGPSVFPLAPSSKSTSGGTAALGCLVKDYFPEPVTVSWNSGALTSGVHTFPAVLQSSGLYSLSSVVTVPSSSLGTQTYICNVNHKPSNTKVDKKVEPKSCDKTHTCPPCPAPELLAGPDVFLFPPKPKDTLMISRTPEVTCVVVDVSHEDPEVKFNWYVDGVEVHNAKTKPREEQYNSTYRVVSVLTVLHQDWLNGKEYKCKVSNKALPLPEEKTISKAKGQPREPQVYTLPPSRDELTKNQVSLTCLVKGFYPSDIAVEWESNGQPENNYKTTPPVLDSDGSFFLYSKLTVDKSRWQQGNVFSCSVMHEALHNHYTQKSLSLSPG
chain 2: B1 chain 2
B4: mAb1-ADLE-L242C-K334C (antibody)
chain 1: B3 chain 1 with L251C, K343C
chain 2: B1 chain 2
B5: mAb1-ADLE-R292C-V302C (antibody)
chain 1: B3 chain 1 with R301C, V311C
chain 2: B1 chain 2
B6: mAb1-ADE-DQ (antibody)
chain 1: B3 chain 1 with T265D, T316Q, L339A
chain 2: B1 chain 2
B7: mAb1-ADE-DQ-L242C-K334C (antibody)
chain 1: B3 chain 1 with L251C, T265D, T316Q, L339A, K343C
chain 2: B1 chain 2
B8: mAb1-ADE-L242C-K334C (antibody)
chain 1: B3 chain 1 with L251C, L339A, K343C
chain 2: B1 chain 2
B9: mAb1-ADE (antibody)
chain 1: B3 chain 1 with L339A
chain 2: B1 chain 2
B10: mAb1-ADE-R292C-V302C (antibody)
chain 1: B3 chain 1 with R301C, V311C, L339A
chain 2: B1 chain 2
B11: mAb1-ADE-DQ-R292C-V302C (antibody)
chain 1: B3 chain 1 with T265D, R301C, V311C, T316Q, L339A
chain 2: B1 chain 2

Residue numbers refer to the chain shown, from its start. In names and notes the source's numbering stands.

T5 sequence (P08637 17-208 limits assumed): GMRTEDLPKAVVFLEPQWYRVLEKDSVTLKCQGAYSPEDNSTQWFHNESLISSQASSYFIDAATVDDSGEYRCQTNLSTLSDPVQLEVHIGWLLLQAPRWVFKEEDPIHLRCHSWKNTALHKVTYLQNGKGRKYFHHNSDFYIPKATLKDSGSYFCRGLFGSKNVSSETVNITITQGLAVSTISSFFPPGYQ

In the first assay the target is T3, FcγRIIIa F158 on HEK293T cells (human, UniProt P08637 17-254).
T3 construct: whole, on cells; also called HEK293T-FcγRIIIa F158
T3 sequence (P08637 17-254): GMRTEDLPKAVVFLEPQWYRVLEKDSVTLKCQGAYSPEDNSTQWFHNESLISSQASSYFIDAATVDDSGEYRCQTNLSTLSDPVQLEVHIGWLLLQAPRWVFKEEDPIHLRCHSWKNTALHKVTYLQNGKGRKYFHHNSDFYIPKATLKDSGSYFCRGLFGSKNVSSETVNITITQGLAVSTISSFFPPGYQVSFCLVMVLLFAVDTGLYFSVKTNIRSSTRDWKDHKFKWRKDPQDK
As to the kind of experiment: FACS on HEK293T-FcγRIIIa cells, assay 1 n=3; cell shifted up, taken as F158.
As to B1, the EC50 came out at 1060 nM.

For a further assay, the target named is T4, human FcRn (human, UniProt P55899 24-297).
T4 construct: also called huFcRn; recombinant human FcRn
T4 sequence (P55899 24-297): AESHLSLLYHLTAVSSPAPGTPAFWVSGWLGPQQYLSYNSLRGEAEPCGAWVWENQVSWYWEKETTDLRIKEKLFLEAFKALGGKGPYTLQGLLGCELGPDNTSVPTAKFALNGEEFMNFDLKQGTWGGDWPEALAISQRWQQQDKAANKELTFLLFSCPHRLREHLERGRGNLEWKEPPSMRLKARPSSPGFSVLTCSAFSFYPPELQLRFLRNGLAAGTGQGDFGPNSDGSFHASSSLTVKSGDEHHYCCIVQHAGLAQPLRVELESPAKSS
Briefly: SPR pH 6.0, huFcRn captured, assay 2 n=3.
Molecule B1 gave a Kd of 941 nM.
Still for that read-out and setting: as for B2, the figure is 761 nM.
B3 had a Kd of 811 nM.

In a further assay the target is T4, human FcRn. As to the kind of experiment: SPR pH 6.0, huFcRn captured, assay 1 n=3.
The molecule B4 yielded a Kd of 956 nM. This lies in the sub-micromolar range.
In the case of B5, the affinity, expressed as Kd, was 1130 nM.
On the same count and under the same terms, as for B1, the figure is 1210 nM.
On the same count and under the same terms, the figure for B2 is 996 nM.
The molecule B6 yielded a dissociation constant Kd of 217 nM. Compared with the last molecule, the Kd is about 4.6-fold lower.
For the molecule B7, the Kd was determined as 161 nM.
B8 returned a Kd of 829 nM.
In the case of B3, the equilibrium dissociation constant (Kd) worked out at 993 nM.
As to B9, the affinity, expressed as Kd, was 1040 nM.
Take B10: binding was characterised by a dissociation constant (Kd) of 1310 nM.
In turn, B11 gave a Kd of 198 nM.

The next assay concerns the target T1, human FcγRIIa R131. As to the kind of experiment: FACS, assay 1 n=3. (In general: A flow cytometer gives signals particle by particle.)
In turn, B4 had a 50% effective concentration (EC50) of 428 nM.
Consider B5, for which the EC50 is 144 nM.
With B1, the midpoint of the response, the EC50, lay at 303 nM.
B2: the EC50 amounted to 198 nM.
Still for that read-out and setting: the figure for B6 is 18 nM; for B7 it is 152 nM.
The same measure, in the same setting: as for B8, the figure is 142 nM.
The molecule B3 gave an EC50 of 85 nM.
Molecule B9 registered an EC50 of 20 nM.
Still for that read-out and setting: the figure for B10 is 43 nM; for B11 it is 45 nM.

For a further assay, the target named is T2, human FcγRIIa H131. Briefly: FACS, assay 1 n=3.
As to B4, a half-maximal effect (EC50) was put at 145 nM.
In turn, B5 showed an EC50 of 155 nM.
On to B1, for which a half-maximal effect (EC50) was put at 341 nM.
On the same count and under the same terms, the figure for B2 is 106 nM; for B6 it is 14 nM.
In turn, B7 registered an EC50 of 68 nM.
B8: the EC50 amounted to 102 nM.
Molecule B3 registered an EC50 of 70 nM.
As to B9, the EC50 is 20 nM.
The same measure, in the same setting: the figure for B10 is 92 nM; for B11 it is 101 nM.

Another assay concerns the target T5, huFcγRIIIa_F158 His protein (human, UniProt P08637 17-208). As to the kind of experiment: SPR, His-receptor captured, assay 2 n=3. For orientation: In SPR one partner is held on a chip, and binding of the other changes the refractive index at the surface.
The molecule B1 registered a Kd of 1330 nM.
On to B2, for which the equilibrium dissociation constant (Kd) worked out at 48 nM.
In the case of B3, binding was characterised by a dissociation constant (Kd) of 46 nM.

A further assay deals with T6, huFcγRIIIa_V158 His protein (human, UniProt P08637 17-208).
T6 construct: also called His-tagged recombinant human FcγRIIIa-V158
T6 sequence (P08637 17-208 F176V limits assumed): as the sequence (P08637 17-208 limits assumed) above, with F160V counted along it
As to the kind of experiment: SPR, His-receptor captured, assay 2 n=3.
B1 had a Kd of 386 nM.
B2 returned a Kd of 17 nM.
Still for that read-out and setting: the figure for B3 is 22 nM.

For another assay, the target named is T7, FcγRIIIa V158 on HEK293T cells (human, UniProt P08637 17-254).
T7 construct: whole, on cells
T7 sequence (P08637 17-254 F176V): as the sequence (P08637 17-254) above, with F160V counted along it
Briefly: FACS on HEK293T-FcγRIIIa cells, assay 2 n=1.
B1 showed an EC50 of 244 nM.
B2: the response was half-maximal at 4 nM (EC50).
Turning to B3, the EC50 amounted to 5 nM.

Another assay addresses T3, FcγRIIIa F158 on HEK293T cells. Briefly: FACS on HEK293T-FcγRIIIa cells, assay 2 n=1.
The molecule B1 returned an EC50 of 744 nM.
Still for that read-out and setting: the figure for B2 is 18 nM; for B3 it is 7 nM.

For another assay the target is unchanged. As to the kind of experiment: FACS on HEK293T-FcγRIIIa cells, assay 1 n=3; bracketed value under the F158 cell.
B3 yielded an EC50 of 4.37 nM.

The target in a further assay is T7, FcγRIIIa V158 on HEK293T cells. As to the kind of experiment: FACS on HEK293T-FcγRIIIa cells, assay 1 n=3; bracketed value under the V158 cell.
For the molecule B3, the midpoint of the response, the EC50, lay at 2.71 nM.

In another assay the target is T5, huFcγRIIIa_F158 His protein. Briefly: SPR, His-receptor captured, assay 1 n=3.
B4: binding was put at a Kd of 148 nM.
Same read-out and setting: the figure for B5 is 296 nM; for B1 it is 3870 nM; for B2 it is 141 nM.
As for B6, the dissociation constant Kd turned out to be 183 nM.
Consider B7, for which the affinity, expressed as Kd, was 211 nM.
B8: binding was characterised by a dissociation constant (Kd) of 193 nM.
Regarding B3, the affinity, expressed as Kd, was 94 nM.
In the case of B9, binding was characterised by a dissociation constant (Kd) of 150 nM.
For B10, the Kd was 211 nM.
Molecule B11 gave a Kd of 202 nM.

The target in the next assay is T6, huFcγRIIIa_V158 His protein. Briefly: SPR, His-receptor captured, assay 1 n=3.
In turn, B4 came in with an equilibrium dissociation constant (Kd) of 161 nM.
For the molecule B5, binding was put at a Kd of 258 nM.
B1 registered a Kd of 1620 nM.
B2 had a Kd of 57 nM.
Still for that read-out and setting: the figure for B6 is 155 nM; for B7 it is 191 nM.
Still for that read-out and setting: as for B8, the figure is 162 nM.
For the molecule B3, the affinity, expressed as Kd, was 77 nM.
Consider B9, for which the Kd is 107 nM.
Take B10: binding was characterised by a dissociation constant (Kd) of 172 nM.
On to B11, for which the Kd stood at 214 nM.

A further assay addresses T7, FcγRIIIa V158 on HEK293T cells. As to the kind of experiment: FACS on HEK293T-FcγRIIIa cells, assay 1 n=3.
Consider B4, for which the concentration for a half-maximal effect (EC50) came out at 5 nM.
B5 had an EC50 of 12 nM.
The molecule B1 showed an EC50 of 186 nM.
Molecule B2 yielded an EC50 of 2 nM.
Regarding B6, it took 4 nM to reach a half-maximal effect (EC50).
The molecule B7 returned an EC50 of 7 nM.
In turn, B8 came in with an EC50 of 5 nM.
B3 yielded a concentration giving a half-maximal response (EC50) of 3 nM.
Turning to B9, a half-maximal effect (EC50) was put at 3 nM.
Still for that read-out and setting: as for B10, the figure is 12 nM.
Molecule B11 gave a concentration giving a half-maximal response (EC50) of 10 nM.

Another assay deals with T3, FcγRIIIa F158 on HEK293T cells. Briefly: FACS on HEK293T-FcγRIIIa cells, assay 1 n=3.
As to B4, the response was half-maximal at 11 nM (EC50).
In turn, B5 showed an EC50 of 25 nM.
Regarding B1, the EC50 worked out at 1060 nM.
B2 returned an EC50 of 11 nM.
As for B6, the 50% effective concentration (EC50) stood at 13 nM.
The molecule B7 registered an EC50 of 19 nM.
B8 showed an EC50 of 18 nM.
In the case of B3, the EC50 came to 4 nM.
As to B9, the 50% effective concentration (EC50) came to 9 nM.
Consider B10, for which the EC50 was 19 nM.
For the molecule B11, the EC50 was found to be 17 nM.
